Target: GST-Keap1 (human, UniProt Q14145 1-624)
Test: pull-down

Chain of GST-Keap1 (Q14145 whole entry): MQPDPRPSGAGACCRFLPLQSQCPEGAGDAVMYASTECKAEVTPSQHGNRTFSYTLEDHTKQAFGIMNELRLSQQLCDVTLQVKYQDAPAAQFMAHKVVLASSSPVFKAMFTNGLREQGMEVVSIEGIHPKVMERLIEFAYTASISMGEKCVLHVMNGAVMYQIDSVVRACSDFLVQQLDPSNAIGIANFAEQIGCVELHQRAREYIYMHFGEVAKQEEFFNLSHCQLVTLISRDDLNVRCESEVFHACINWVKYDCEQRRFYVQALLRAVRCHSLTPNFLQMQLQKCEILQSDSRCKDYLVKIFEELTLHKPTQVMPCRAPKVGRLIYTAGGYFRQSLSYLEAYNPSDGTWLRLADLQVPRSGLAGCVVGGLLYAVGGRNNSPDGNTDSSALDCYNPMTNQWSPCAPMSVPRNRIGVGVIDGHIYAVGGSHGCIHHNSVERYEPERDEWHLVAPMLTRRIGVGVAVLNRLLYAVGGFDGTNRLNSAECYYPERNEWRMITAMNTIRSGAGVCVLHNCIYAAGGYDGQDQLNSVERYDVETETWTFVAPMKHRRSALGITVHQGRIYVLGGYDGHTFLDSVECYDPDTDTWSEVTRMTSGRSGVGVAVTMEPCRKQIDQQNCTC

B1: His-SRX (natural protein)
chain: not shown
- binding result: binds

Reference: publication PMC11615322 (Nature Communications, 2024)
